The values that follow come from article PMC11684626.

This assay addresses HA-PEG10 gag-pol (Homo sapiens) (UniProt Q86TG7). Kind of assay: co-sedimentation; crude VLP preparation: conditioned medium of co-transfected HEK293 cells, cleared at 2700 x g, ultracentrifuged at 134,000 x g for 4 hr at 4°C over a 30% sucrose cushion; pellet analysed by western blot.
UniProt Q86TG7, sequence (Q86TG7 whole entry): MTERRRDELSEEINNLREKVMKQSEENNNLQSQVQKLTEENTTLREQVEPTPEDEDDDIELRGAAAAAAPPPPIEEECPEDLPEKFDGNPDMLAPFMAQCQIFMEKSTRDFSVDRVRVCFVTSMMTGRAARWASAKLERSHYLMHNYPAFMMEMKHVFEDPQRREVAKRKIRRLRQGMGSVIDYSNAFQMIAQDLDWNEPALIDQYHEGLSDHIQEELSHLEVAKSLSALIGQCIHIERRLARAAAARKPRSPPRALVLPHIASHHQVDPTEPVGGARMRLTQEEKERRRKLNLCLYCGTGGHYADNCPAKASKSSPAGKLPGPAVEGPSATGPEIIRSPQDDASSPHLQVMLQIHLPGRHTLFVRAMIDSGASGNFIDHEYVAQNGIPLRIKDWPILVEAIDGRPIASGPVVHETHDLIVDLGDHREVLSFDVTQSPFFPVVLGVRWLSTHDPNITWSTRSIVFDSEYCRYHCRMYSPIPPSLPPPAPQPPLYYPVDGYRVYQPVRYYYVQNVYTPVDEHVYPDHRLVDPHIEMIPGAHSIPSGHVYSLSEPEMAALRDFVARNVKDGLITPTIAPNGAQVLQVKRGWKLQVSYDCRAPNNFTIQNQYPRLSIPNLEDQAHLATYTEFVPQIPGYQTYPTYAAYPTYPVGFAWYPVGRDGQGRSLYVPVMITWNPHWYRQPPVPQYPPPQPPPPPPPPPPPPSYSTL

In the case of “HA-HsRTL8c (from UniProt A6ZKI3 1-113) (natural protein)”, the abundance of RTL8 relative to HA-PEG10 in the VLP fraction is 5%.
